The record followed here is article PMC4120242.

The test deals with endogenous FcγRI on human monocytes (human (endogenous in blood monocytes)) (UniProt P12314).
Sequence of UniProt P12314 (P12314 16-374): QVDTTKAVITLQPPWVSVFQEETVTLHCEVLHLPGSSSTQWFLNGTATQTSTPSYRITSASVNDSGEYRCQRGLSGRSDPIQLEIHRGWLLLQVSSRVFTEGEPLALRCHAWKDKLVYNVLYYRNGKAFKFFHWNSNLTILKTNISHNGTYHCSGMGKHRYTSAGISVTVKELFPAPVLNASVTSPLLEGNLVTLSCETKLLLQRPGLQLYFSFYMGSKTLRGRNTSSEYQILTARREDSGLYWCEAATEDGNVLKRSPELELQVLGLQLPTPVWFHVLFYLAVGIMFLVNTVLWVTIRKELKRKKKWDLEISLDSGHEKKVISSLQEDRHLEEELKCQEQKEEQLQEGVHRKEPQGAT

The substance “Serum Amyloid P component (SAP), wildtype (from UniProt P02743 20-223) (natural protein)” came in with an IC50 of inhibition of fibrocyte differentiation of human PBMCs of 2.9 nM.
